Data published in publication PMC4384708, “Molecular imaging of angiogenesis after myocardial infarction by ^111In-DTPA-cNGR and ^99mTc-sestamibi dual-isotope myocardial SPECT” (EJNMMI Research, 2015).
Bridge positions count the residues as written; N and C are the ends. Peptide text beside a SMILES is read from it. * marks the point of attachment. X1 = N[C@@H](CSC1CC(=O)N(CC2CCC(C(=O)*)CC2)C1=O)C(=O)NCCCC[C@@H](C(=O)O)N(CCN(CC(=O)O)CC(=O)O)CCN(CC(=O)O)CC(=O)O

Tests used:
in vivo [1] = settings: male, Swiss, mouse, heart, iv, mean ± S.E.M.
Protocol: (§1) MI was induced in 10- to 12-week old male Swiss mice by ligation of the left anterior descending coronary artery (LAD) (n = 7), as previously described. The angiogenesis imaging protocol was performed 7 days after the LAD ligation. A group of non-operated male Swiss mice (n = 5) was used as control. A variable number of animals were available for analysis per experiment. For SPECT scans, seven MI mice and five control mice were used while for biodistribution purposes ≥5 MI mice and ≥4 control mice were used. Furthermore, a group of six 10- to 12-week old male Swiss mice were bilaterally, subcutaneously implanted in the flanks with Matrigel (Table 1). […] All animals were held under the guidelines of the animal care facility (Maastricht University). All animal experiments were approved by the Committee for Animal Welfare of Maastricht University.
Mice were anesthetised with isoflurane (induction 2.5%; maintenance; 1.5%), a catheter was placed in the tail vein and the animals were positioned in the micro-SPECT camera (MiLabs, Utrecht, The Netherlands).
U-SPECT-II reconstruction software version 2.38 (MiLabs, Utrecht, The Netherlands) was used to reconstruct images. ^99mTc and ^111In images were reconstructed by selecting the photopeak (PP) and background (BG) windows as indicated in Figure 1.
To allow quantification of radiotracer uptake in vivo, conversion factors (CFs) were determined for the 0.6-mm collimator system in a representative phantom (20 ml) for ^99mTc and/or ^111In. During the SPECT reconstruction, the total amount of counts was distributed over the different voxels, resulting in a counts/voxel expression for the average concentration of counts. Taking into account the voxel volume (Vv), the CFs are calculated using equation (a):a ConversionfactorMBq=ActivityconcentrationMBq/ml/SPECTcountspervoxel/Vvml
(§2) The PMOD 2.95 cardiac tool PCARD (PMOD Technologies, Zürich, Switzerland) was used to segment the heart in the 17-segment model according to the American Heart Association (AHA) guidelines. For both the ^99mTc-sestamibi and ^111In-DTPA-cNGR images, the uptake was measured for each segment and expressed as mean standardised uptake value (SUVmean) using equation (b).b SUV=SPECTcountspervoxel×CF/VvMBq/ml×Bodyweightg/InjecteddoseMBq
For body weight, we assumed that 1 g of body weight equalled 1 ml.

in vivo [2] = settings: 2 h p.i., gamma counting, mean ± SEM; for urinary excretion (urine radioactivity): i.v.; for tissue uptake at 2 h: male, Swiss, mouse, iv, total radioactivity
Protocol: In order to quantify the absolute uptake of ^111In-DTPA-cNGR in the different heart pieces, gamma counting was performed using an automated NaI(Tl) gamma counter (Wallac Wizard, Turku, Finland). Additionally, we dissected the vital organs of the mice to study overall biodistribution. The uptake of ^111In-DTPA-cNGR was determined 2 h post-injection (p.i.) for both MI (n ≥ 5) and control animals (n ≥ 4). Data were expressed as percentage of injected dose per gram tissue (%ID/g). Urinal excretion was expressed as %ID.

[3] = Matrigel plug model, ex vivo SPECT of explanted Matrigels; type: in vivo; settings: male, Swiss, mouse, total radioactivity, six mice, mean ± SEM
Protocol: as §1, §2

CC(=O)N[C@H]1CSSC[C@@H](C(=O)NCC(=O)NCC(=O)N[C@@H](CCCCNC(=O)C2CCC(CN3C(=O)CC(SC[C@H](N)C(=O)NCCCC[C@@H](C(=O)O)N(CCN(CC(=O)O)CC(=O)O)CCN(CC(=O)O)CC(=O)O)C3=O)CC2)C(N)=O)NC(=O)[C@H](CCCNC(=N)N)NC(=O)CNC(=O)[C@H](CC(N)=O)NC1=O (stereo partly drawn) [^111In-DTPA-cNGR, metal not drawn] (Ac-CNGRCGGK(X1)-NH2; disulfide 1-5)
SUV (in vivo [1]; AHA segment 5 (basal inferolateral), segment 5. Basal inferolateral, MI mice n = 7, 7 days after LAD ligation, in vivo SPECT): 0.23 ± 0.03 SUV | SUV (in vivo [1]; AHA segment 5 (basal inferolateral), segment 5. Basal inferolateral, healthy control mice n = 5, in vivo SPECT): 0.14 ± 0.04 SUV | SUV (in vivo [1]; segment 1 basal anterior, total radioactivity, healthy control mice n = 5, in vivo SPECT): 0.16 ± 0.05 SUV | SUV (in vivo [1]; segment 1 basal anterior, total radioactivity, segment 1. Basal anterior, MI mice n = 7, 7 days after LAD ligation, in vivo SPECT): 0.24 ± 0.04 SUV | SUV (in vivo [1]; segment 2 basal anteroseptal, total radioactivity, healthy control mice n = 5, in vivo SPECT): 0.16 ± 0.05 SUV | SUV (in vivo [1]; segment 2 basal anteroseptal, total radioactivity, segment 2. Basal anteroseptal, MI mice n = 7, 7 days after LAD ligation, in vivo SPECT): 0.21 ± 0.03 SUV | SUV (in vivo [1]; segment 3 basal inferoseptal, total radioactivity, healthy control mice n = 5, in vivo SPECT): 0.13 ± 0.06 SUV | SUV (in vivo [1]; segment 3 basal inferoseptal, total radioactivity, segment 3. Basal inferoseptal, MI mice n = 7, 7 days after LAD ligation, in vivo SPECT): 0.2 ± 0.02 SUV | SUV (in vivo [1]; segment 4 basal inferior, total radioactivity, healthy control mice n = 5, in vivo SPECT): 0.15 ± 0.05 SUV | SUV (in vivo [1]; segment 4 basal inferior, total radioactivity, segment 4. Basal inferior, MI mice n = 7, 7 days after LAD ligation, in vivo SPECT): 0.23 ± 0.03 SUV | SUV (in vivo [1]; segment 6 basal anterolateral, total radioactivity, healthy control mice n = 5, in vivo SPECT): 0.18 ± 0.06 SUV | SUV (in vivo [1]; segment 6 basal anterolateral, total radioactivity, segment 6. Basal anterolateral, MI mice n = 7, 7 days after LAD ligation, in vivo SPECT): 0.26 ± 0.04 SUV | SUV (in vivo [1]; segment 7 mid anterior, total radioactivity, healthy control mice n = 5, in vivo SPECT): 0.15 ± 0.05 SUV | SUV (in vivo [1]; segment 7 mid anterior, total radioactivity, segment 7. Mid anterior, MI mice n = 7, 7 days after LAD ligation, in vivo SPECT): 0.21 ± 0.02 SUV | SUV (in vivo [1]; segment 8 mid anteroseptal, total radioactivity, healthy control mice n = 5, in vivo SPECT): 0.14 ± 0.06 SUV | SUV (in vivo [1]; segment 8 mid anteroseptal, total radioactivity, segment 8. Mid anteroseptal, MI mice n = 7, 7 days after LAD ligation, in vivo SPECT): 0.2 ± 0.02 SUV | SUV (in vivo [1]; segment 9 mid inferoseptal, total radioactivity, healthy control mice n = 5, in vivo SPECT): 0.12 ± 0.06 SUV | SUV (in vivo [1]; segment 9 mid inferoseptal, total radioactivity, segment 9. Mid inferoseptal, MI mice n = 7, 7 days after LAD ligation, in vivo SPECT): 0.18 ± 0.03 SUV | SUV (in vivo [1]; segment 10 mid inferior, total radioactivity, healthy control mice n = 5, in vivo SPECT): 0.12 ± 0.05 SUV | SUV (in vivo [1]; segment 10 mid inferior, total radioactivity, segment 10. Mid inferior, MI mice n = 7, 7 days after LAD ligation, in vivo SPECT): 0.17 ± 0.03 SUV | SUV (in vivo [1]; segment 11 mid inferolateral, total radioactivity, healthy control mice n = 5, in vivo SPECT): 0.11 ± 0.04 SUV | SUV (in vivo [1]; segment 11 mid inferolateral, total radioactivity, segment 11. Mid inferolateral, MI mice n = 7, 7 days after LAD ligation, in vivo SPECT): 0.2 ± 0.03 SUV | SUV (in vivo [1]; segment 12 mid anterolateral, total radioactivity, healthy control mice n = 5, in vivo SPECT): 0.15 ± 0.05 SUV | SUV (in vivo [1]; segment 12 mid anterolateral, total radioactivity, segment 12. Mid anterolateral, MI mice n = 7, 7 days after LAD ligation, in vivo SPECT): 0.24 ± 0.01 SUV | SUV (in vivo [1]; segment 13 apical anterior, total radioactivity, healthy control mice n = 5, in vivo SPECT): 0.11 ± 0.03 SUV | SUV (in vivo [1]; segment 13 apical anterior, total radioactivity, segment 13. Apical anterior, MI mice n = 7, 7 days after LAD ligation, in vivo SPECT): 0.21 ± 0.02 SUV | SUV (in vivo [1]; segment 14 apical septal, total radioactivity, healthy control mice n = 5, in vivo SPECT): 0.12 ± 0.04 SUV | SUV (in vivo [1]; segment 14 apical septal, total radioactivity, segment 14. Apical septal, MI mice n = 7, 7 days after LAD ligation, in vivo SPECT): 0.2 ± 0.03 SUV | SUV (in vivo [1]; segment 15 apical inferior, total radioactivity, healthy control mice n = 5, in vivo SPECT): 0.1 ± 0.03 SUV | SUV (in vivo [1]; segment 15 apical inferior, total radioactivity, segment 15. Apical inferior, MI mice n = 7, 7 days after LAD ligation, in vivo SPECT): 0.18 ± 0.03 SUV | SUV (in vivo [1]; segment 16 apical lateral, total radioactivity, healthy control mice n = 5, in vivo SPECT): 0.14 ± 0.04 SUV | SUV (in vivo [1]; segment 16 apical lateral, total radioactivity, segment 16. Apical lateral, MI mice n = 7, 7 days after LAD ligation, in vivo SPECT): 0.22 ± 0.02 SUV | SUV (in vivo [1]; segment 17 apex, total radioactivity, healthy control mice n = 5, in vivo SPECT): 0.1 ± 0.03 SUV | SUV (in vivo [1]; segment 17 apex, total radioactivity, segment 17. Apex, MI mice n = 7, 7 days after LAD ligation, in vivo SPECT): 0.2 ± 0.03 SUV | urinary excretion (urine radioactivity) (in vivo [2]; MI mice (n ≥ 5)): 82.29 ± 4.87 %ID | urinary excretion (urine radioactivity) (in vivo [2]; healthy control mice (n ≥ 4)): 92.5 ± 1.17 %ID | tissue uptake at 2 h (in vivo [2]; heart, apical region, uptake in the apical region of the heart, infarcted hearts, MI mice (n ≥ 5)): 0.16 ± 0.0542 %ID/g | tissue uptake at 2 h (in vivo [2]; heart, apical region, uptake in the apical region of the heart, non-infarcted hearts, healthy control mice (n ≥ 4)): 0.02 ± 0.005 %ID/g | tissue uptake at 2 h (in vivo [2]; kidney, kidney uptake, MI mice (n ≥ 5)): 2.73 ± 0.42 %ID/g | tissue uptake at 2 h (in vivo [2]; kidney, kidney uptake, healthy control mice (n ≥ 4)): 4.04 ± 0.41 %ID/g | SUV ([3]; explanted control (PBS) Matrigel plug, control (PBS) Matrigels): 0.000222 SUV | SUV ([3]; explanted hFGF2-supplemented Matrigel plug, hFGF2-supplemented Matrigels): 0.000824 SUV
